One block for each molecule: values may come before it.
Assays:
[1] = target: Human CD16 (V158 allotype), soluble (human) (UniProt P08637); assay: SPR (BIAcore 3000), Fc amine-coupled to CM5 chip, soluble CD16 V158 at 1 nM-1.6 µM, steady-state isotherm fit, 25 C
Human FcγRIIB = target: T1, Human FcγRIIB (human, UniProt P31994 43-217, limits assumed); assay: SPR (BIAcore 3000), immobilised Fc/Mut3, human FcγRIIB injected at 8 µM
T1 construct: The construct is not described
T1 sequence (looked up): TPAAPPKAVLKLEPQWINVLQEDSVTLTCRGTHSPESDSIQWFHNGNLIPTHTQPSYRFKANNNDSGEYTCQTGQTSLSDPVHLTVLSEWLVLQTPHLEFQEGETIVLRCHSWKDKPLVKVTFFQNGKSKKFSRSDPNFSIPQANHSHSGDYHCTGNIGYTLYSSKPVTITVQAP

Human FcγRIIA [2] = target: T2, Human FcγRIIA (human, UniProt P12318 34-217, limits assumed); assay: SPR (BIAcore 3000), immobilised Fc/Mut3, human FcγRIIA injected at 8 µM
T2 construct: The construct is not described
T2 sequence (looked up): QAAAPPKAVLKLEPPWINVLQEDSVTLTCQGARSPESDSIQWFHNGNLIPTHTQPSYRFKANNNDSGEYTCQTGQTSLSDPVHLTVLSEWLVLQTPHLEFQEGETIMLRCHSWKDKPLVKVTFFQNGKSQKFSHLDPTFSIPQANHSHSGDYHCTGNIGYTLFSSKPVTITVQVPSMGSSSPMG

Human FcγRIIA [3] = target: T2, Human FcγRIIA; assay: SPR (BIAcore 3000), immobilised Fc/Mut2, human FcγRIIA injected at 8 µM

Chain of Human CD16 (V158 allotype), soluble (human) (P08637 17-208 F176V): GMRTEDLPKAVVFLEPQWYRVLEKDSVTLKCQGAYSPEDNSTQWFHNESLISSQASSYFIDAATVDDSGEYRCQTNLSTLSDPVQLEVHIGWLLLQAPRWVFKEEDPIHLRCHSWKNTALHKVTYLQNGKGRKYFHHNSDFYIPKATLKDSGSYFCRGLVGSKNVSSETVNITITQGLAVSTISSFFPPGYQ

Kd [1]: 157 nM
Molecule: Unmutated human Fc (from UniProt P0DOX5 225-449)

binding result (Human FcγRIIB): no binding (tested: 8 µM) | binding result (Human FcγRIIA [2]): no binding (tested: 8 µM)
B1: Fc/Mut3 (other)
chain: THTCPPCPAPELLGGPSVFLFPPKPKDTLMISRTPEVTCVVVDVSHEDPEVKFNWYVDGVEVHNAKTKPRENSTVVSVLTVLHQDWLNGKEYKCKVSNKALPAPIEKTISKAKGQPREPQVYTLPPSREEMTKNQVSLTCLVKGFYPSDIAVEWESNGQPENNYKTTPPVLDSDGSFFLYSKLTVDKSRWQQGNVFSCSVMHEALHNHYTQKSLSLSPGK
notes: It was made in the same expression construct as the unmutated human Fc and expressed in HEK 293 cells

binding result (Human FcγRIIA [3]): no binding (tested: 8 µM)
B2: Fc/Mut2 (other)
chain: THTCPPCPAPELLGGPSVFLFPPKPKDTLMISRTPEVTCVVVDVSHEDPEVKFNWYVDGVEVHNAKTKPRENSTYRVVSVLTVLHQDWLNGKEYKCKVSNKALPAPIEKTISKAKGQPREPQVYTLPPSREEMTKNQVSLTCLVKGFYPSDIAVEWESNGQPENNYKTTPPVLDSDGSFFLYSKLTVDKSRWQQGNVFSCSVMHEALHNHYTQKSLSLSPGK
notes: as for B1

Reference: patent US20110091992A1 (AstraZeneca / MedImmune, published 2011)
